Laboratory results from patent US8722052B2, “Vaccinia virus protein A46 peptide and use thereof” (priority 2008, dated 2014).
Ends that are not written are not given here.

Columns and labels:
TLR4 [1] = target: T1, TLR4 (Mus musculus, UniProt Q9QUK6); assay: LPS-induced TNFα in immortalised murine macrophages, ELISA; format: cell-based; set-up: endogenous in cells; immortalised murine bone-marrow-derived macrophages; conditions: peptide 1, 3, 6.25 and 12.5 μM, 20 ng/ml LPS, 6 h
T1 sequence (Q9QUK6 26-835): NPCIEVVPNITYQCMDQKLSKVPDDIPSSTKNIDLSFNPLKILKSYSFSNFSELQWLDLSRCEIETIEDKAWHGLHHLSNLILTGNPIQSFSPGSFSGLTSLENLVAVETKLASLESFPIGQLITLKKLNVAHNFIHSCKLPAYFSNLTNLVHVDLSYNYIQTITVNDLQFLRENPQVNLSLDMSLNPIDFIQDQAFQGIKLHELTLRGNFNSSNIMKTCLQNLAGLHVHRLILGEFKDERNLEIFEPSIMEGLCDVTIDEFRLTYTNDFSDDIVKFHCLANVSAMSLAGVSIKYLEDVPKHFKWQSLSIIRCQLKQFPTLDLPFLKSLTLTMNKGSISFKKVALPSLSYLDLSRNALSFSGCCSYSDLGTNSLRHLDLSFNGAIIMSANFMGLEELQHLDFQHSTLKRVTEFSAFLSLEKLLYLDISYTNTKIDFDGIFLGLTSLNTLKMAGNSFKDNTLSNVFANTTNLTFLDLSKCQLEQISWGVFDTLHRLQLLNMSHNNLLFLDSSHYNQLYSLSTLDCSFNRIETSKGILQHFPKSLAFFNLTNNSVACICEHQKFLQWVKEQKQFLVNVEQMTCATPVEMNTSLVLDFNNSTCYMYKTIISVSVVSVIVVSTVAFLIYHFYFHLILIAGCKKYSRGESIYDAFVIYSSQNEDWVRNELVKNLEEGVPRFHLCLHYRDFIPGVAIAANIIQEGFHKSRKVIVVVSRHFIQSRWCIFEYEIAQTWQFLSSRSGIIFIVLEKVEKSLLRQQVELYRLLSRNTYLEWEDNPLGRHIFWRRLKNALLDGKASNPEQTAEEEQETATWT
T1 sequence (Q9JHF9 19-160 partner): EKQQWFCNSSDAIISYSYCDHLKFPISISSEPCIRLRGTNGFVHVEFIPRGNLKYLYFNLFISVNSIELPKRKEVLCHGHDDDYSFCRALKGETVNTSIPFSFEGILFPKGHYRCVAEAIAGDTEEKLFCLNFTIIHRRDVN

TLR3 = target: T2, TLR3 (Homo sapiens, UniProt O15455); assay: poly(I:C)-induced NFκB / ISRE luciferase reporter assay in HEK293_TLR3 cells; format: cell-based; conditions: peptide 1, 5 or 25 μM, 25 μg/ml Poly(I:C), 6 h
T2 construct: expressed in transfected cells
Method: FIGS. 11A and B are bar charts showing the effect of A464 and scrambled A464 (ConA464) on poly(I:C)-induced TLR3 signalling in HEK293 cells. HEK293_TLR3 cells were seeded in 96 well plates (1.5×10^5 cells/ml) 24 hours before transfection with the plasmid DNA. Cells were transfected with 60 ng of either ISRE-Luciferase (A) or NFκB-Luciferase (B) and 20 ng of TK-Renilla reporter gene plasmids. The total volume of plasmid DNA transfected into the cells was made up to 230 ng by adding pcDNA.
Scrambled A464 (ConA464) (SEQ ID NO. 32) and A464 (SEQ ID NO. 20) peptides were added to the cells at a concentration of 2, 5 or 10 μM the next day and cells were stimulated with 25 μg/ml poly(I:C) 1 hour after treatment with the peptide. Cells were harvested and reporter gene assays performed 6 hr after stimulation with the agonist. No peptides were added to the control wells (black bars). Data is representative of at least three experiments each performed in triplicate. Data are expressed as mean fold induction±s.d. relative to control levels;
(§1) FIGS. 20A and B are bar charts showing the effect of shortened A464 peptides with deletions of N- and C-terminal amino acids on TLR4- and TLR3-induced NFκB activation in HEK293 cells. HEK293_TLR4 (A) and HEK293_TLR3 (B) cells were seeded in 96 well plates (1.5×10^5 cells/ml) 24 hours before transfection with the plasmid DNA. Cells were transfected with 60 ng NFκB-Luciferase and 20 ng of TK-Renilla reporter genes, as in FIG. 11. A464N-2 (SEQ ID NO. 41) and A464C-3 (SEQ ID NO. 42) peptides were added to the cells at a concentration of 1, 5 or 25 μM the next day and cells were stimulated with either 10 ng/ml LPS (A) or 25 μg/ml Poly(I:C) (B) 1 hour after treatment with peptides. Cells were harvested and assayed for NFκB activation by reporter gene assay 6 hours after stimulation with the agonists. No peptides were added to the control wells (black bars). Data is representative of three experiments each performed in triplicate and is expressed as mean fold induction±s.d. relative to control levels;
HEK293 cells were transfected using GeneJuice® a proprietary non-toxic transfection reagent. 200 μl/well cells at a density of 1×10^5 cells/ml were seeded the day before transfection. 0.8 μl of GeneJuice was mixed with 9.2 μl of serum-free DMEM (SFM) per transfection and incubated for 5 min at room temperature before adding the appropriate amount of the plasmid DNA. The GeneJuice/SFM/DNA mixture was then incubated at room temperature for 15 min before adding to the cells. 10 μl per well of the GeneJuice/SMF/DNA mixture was added to the cells in triplicate and the cells were allowed to recover for 18-20 hours before stimulation. […]

TLR4 [2] = assay: LPS-induced NFκB reporter assay in HEK293_TLR4 cells; format: cell-based, human; conditions: peptide 1, 5 or 25 μM 1 h before 10 ng/ml LPS, 6 h
Method: as §1
FIGS. 24A and B are bar charts showing the effect of A464 on ligand-independent TLR4 signalling in HEK293 cells. HEK293_TLR4 cells were seeded in 96 well plate (1.5×10^5 cells/ml) 24 hours before transfection with NFκB-luciferase and TK-Renilla reporter gene plasmids. NFκB activation was stimulated by transfecting either 50 or 100 ng of CD4/TLR4-encoding plasmid or by stimulating with 10 ng/ml LPS. The total amount of plasmid DNA transfected into the cells was made up to 230ng by adding pcDNA. A464 (SEQ ID NO. 20) was added to the cells at a concentration of 5 or 25 μM 2 hours (A) or 9 hours (B) after the transfection or LPS-stimulation. Cells were harvested and assayed for NFκB activation by reporter gene assay 24 hours post-transfection. No peptides were added to the control wells (black bars). Data is representative of two experiments, each performed in triplicate and is expressed as mean fold induction±s.d. relative to control levels;
HEK293 cells were transfected using GeneJuice® a proprietary non-toxic transfection reagent. […]

TLR4 [3] = assay: LPS-induced TNFα in PMA-differentiated U937 cells, ELISA; format: cell-based, human; conditions: peptide 5 or 20 μM 1 h before 100 ng/ml LPS, 24 h
Method: FIGS. 3A and B are bar charts showing the effect of peptides derived from A46 on LPS-induced TNFα in human U937 cells. Cells were differentiated with 200 nM PMA and seeded in 96 well plates (2×10^5 cells/ml) 24 hours before treatment. A46 peptides were added to the cells at a concentration of 5 or 20 μM 1 hour before stimulating with 100 ng/ml LPS. Supernatants were collected 24 hours after stimulation and assayed for TNFα by ELISA. No peptides were added into the control wells (black bars). (A) peptides A461-A467 (SEQ ID NO. 17 to 23). (B) peptides A468-A4614 (SEQ ID NO. 24 to 30) (excluding A4612 SEQ ID NO. 28). Data is representative of at least two experiments each performed in triplicate and is expressed as mean±s.d;
Cytokine and chemokine production from cells or mouse serum was measured by ELISA using Duoset kits from R&D systems, according to the manufacturer's instructions.
LPS is a component of a cell wall of Gram-negative bacteria which is recognised by a homodimer of TLR4 and signals to NFκB via both a MyD88- and TRIF-dependent pathway (O'Neill and Bowie, 2007). In order to examine the effect of the peptides on TLR4-dependent gene induction in human cells, the human monocytic lymphoma cell line U937 was used. U937 cells were differentiated into macrophages by treatment with 200 nM PMA for 24 hours before any further manipulations. […]

PBMCs = assay: MTT cell viability assay, PBMC; format: cell-based, human; conditions: peptide 1, 5 and 25 μM
Method: FIGS. 13A and B are bar charts showing the effect of A467 and A464 on LPS-induced TNFα production and on cell viability in primary human cells. Peripheral blood mononuclear cells (PBMCs) were seeded in 96 well plates (1 ×10^6 cells/ml) 24 hours before treatment. A467 (SEQ ID NO. 23) and A464 (SEQ ID NO. 20) were added to the cells at 1, 5 and 25 μM 1 hour before stimulating with 10 ng/ml LPS. The peptides were added into the unstimulated control wells at 25 μM. Supernatants were collected 6 hours after stimulation and assayed for TNFα production by ELISA (A). The cells were assayed for viability by the MTT assay (B). No peptides were added to the control wells (black bars). Data is representative of at least three experiments each performed in triplicate and is expressed as mean±s.d;
Cell viability was measured by assessing mitochondrial function using an MTT (3-(4,5-Dimethylthiazol-2-yl)-2,5-diphenyltetrazolium bromide) assay. Cells were seeded into 96 well plates and treated with peptides and agonists as described above in relation to the Figs. Wells containing medium only served as a blank control. To terminate treatment of cells, medium was removed and the cells were washed once with PBS. […] MTT was then removed and 200 μl per well of dimethyl sulphoxide (DMSO) was added and cells incubated for 20 min at 37° C. in the dark, prior to absorbance being read at 595 nm on a spectrophotometer.

Sequence of TLR4 (O00206 24-839): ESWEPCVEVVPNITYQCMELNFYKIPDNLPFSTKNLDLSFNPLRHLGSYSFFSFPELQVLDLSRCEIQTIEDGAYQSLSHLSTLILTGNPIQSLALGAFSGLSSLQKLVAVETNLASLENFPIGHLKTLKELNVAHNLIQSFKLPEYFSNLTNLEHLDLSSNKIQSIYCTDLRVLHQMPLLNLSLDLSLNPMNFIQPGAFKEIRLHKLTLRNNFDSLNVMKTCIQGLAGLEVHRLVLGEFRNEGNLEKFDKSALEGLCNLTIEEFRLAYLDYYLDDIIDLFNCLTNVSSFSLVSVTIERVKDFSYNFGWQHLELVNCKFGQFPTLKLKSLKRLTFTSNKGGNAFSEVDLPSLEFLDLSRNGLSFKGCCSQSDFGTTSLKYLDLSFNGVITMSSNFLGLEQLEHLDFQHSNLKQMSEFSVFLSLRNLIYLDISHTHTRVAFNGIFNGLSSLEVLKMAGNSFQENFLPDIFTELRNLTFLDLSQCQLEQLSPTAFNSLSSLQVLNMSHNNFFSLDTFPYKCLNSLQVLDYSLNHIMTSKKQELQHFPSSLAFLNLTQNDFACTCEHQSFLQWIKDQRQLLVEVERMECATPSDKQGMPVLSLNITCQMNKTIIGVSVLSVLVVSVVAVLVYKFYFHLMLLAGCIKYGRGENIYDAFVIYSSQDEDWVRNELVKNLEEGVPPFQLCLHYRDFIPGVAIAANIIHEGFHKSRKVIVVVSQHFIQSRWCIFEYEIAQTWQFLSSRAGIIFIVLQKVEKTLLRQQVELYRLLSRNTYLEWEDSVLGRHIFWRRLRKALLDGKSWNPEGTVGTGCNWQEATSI
Sequence of TLR4 (Q9Y6Y9 17-160 partner limits assumed): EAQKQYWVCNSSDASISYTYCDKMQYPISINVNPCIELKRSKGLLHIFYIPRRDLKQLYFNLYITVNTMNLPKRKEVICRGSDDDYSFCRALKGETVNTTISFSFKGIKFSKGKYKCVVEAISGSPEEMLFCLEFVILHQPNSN

Substance: 9R-FKLIL (RRRRRRRRRFKLIL) [Peptide 9R-FKLIL]
- inhibition of TLR4-induced murine TNFα by shorter versions of sA464N9R (TLR4 [1]): retained the ability to inhibit TLR4

Substance: 9R-SFKLFL (RRRRRRRRRSFKLFL) [Peptide 9R-SFKLFL]
- inhibition of TLR4-induced murine TNFα by shorter versions of sA464N9R (TLR4 [1]): did not

Substance: 9R-SFKLI (RRRRRRRRRSFKLI) [Peptide 9R-SFKLI]
- inhibition of TLR4-induced murine TNFα by shorter versions of sA464N9R (TLR4 [1]): did not

Substance: KYSFKLIL-9R (KYSFKLILRRRRRRRRR) [Peptide A464C-3]
- inhibition of Poly(I:C)-induced NFκB activation (TLR3) by shortened peptides (TLR3): no inhibition of TLR3 signalling to NFκB up to 25 μM
- inhibition of LPS-induced NFκB activation by shortened peptides (TLR4 [2]): inhibited LPS-induced NFκB activation completely at 1 μM

Substance: LILAEYIRHRNRRRRRRRRR [Peptide A465]
- inhibition of LPS (TLR4)-induced TNFα production (TLR4 [3]): did not inhibit TLR4 responses

Substance: RNTISGNIYSARRRRRRRRR [Peptide A467]
- toxicity (MTT) (PBMCs): not toxic

Substance: SFKLILAEY-9R (SFKLILAEYRRRRRRRRR) [Peptide A464N-2]
- inhibition of Poly(I:C)-induced NFκB activation (TLR3) by shortened peptides (TLR3): no inhibition of TLR3 signalling to NFκB up to 25 μM
- inhibition of LPS-induced NFκB activation by shortened peptides (TLR4 [2]): inhibited LPS-induced NFκB activation completely at 1 μM
